The values below come from article doi:10.1101/2020.05.08.084087 (bioRxiv, 2020).

One assay addresses T1, ABCB1-YFP P1.008G (Arabidopsis, UniProt Q9ZR72 1-1286, P1.008G).
T1 sequence: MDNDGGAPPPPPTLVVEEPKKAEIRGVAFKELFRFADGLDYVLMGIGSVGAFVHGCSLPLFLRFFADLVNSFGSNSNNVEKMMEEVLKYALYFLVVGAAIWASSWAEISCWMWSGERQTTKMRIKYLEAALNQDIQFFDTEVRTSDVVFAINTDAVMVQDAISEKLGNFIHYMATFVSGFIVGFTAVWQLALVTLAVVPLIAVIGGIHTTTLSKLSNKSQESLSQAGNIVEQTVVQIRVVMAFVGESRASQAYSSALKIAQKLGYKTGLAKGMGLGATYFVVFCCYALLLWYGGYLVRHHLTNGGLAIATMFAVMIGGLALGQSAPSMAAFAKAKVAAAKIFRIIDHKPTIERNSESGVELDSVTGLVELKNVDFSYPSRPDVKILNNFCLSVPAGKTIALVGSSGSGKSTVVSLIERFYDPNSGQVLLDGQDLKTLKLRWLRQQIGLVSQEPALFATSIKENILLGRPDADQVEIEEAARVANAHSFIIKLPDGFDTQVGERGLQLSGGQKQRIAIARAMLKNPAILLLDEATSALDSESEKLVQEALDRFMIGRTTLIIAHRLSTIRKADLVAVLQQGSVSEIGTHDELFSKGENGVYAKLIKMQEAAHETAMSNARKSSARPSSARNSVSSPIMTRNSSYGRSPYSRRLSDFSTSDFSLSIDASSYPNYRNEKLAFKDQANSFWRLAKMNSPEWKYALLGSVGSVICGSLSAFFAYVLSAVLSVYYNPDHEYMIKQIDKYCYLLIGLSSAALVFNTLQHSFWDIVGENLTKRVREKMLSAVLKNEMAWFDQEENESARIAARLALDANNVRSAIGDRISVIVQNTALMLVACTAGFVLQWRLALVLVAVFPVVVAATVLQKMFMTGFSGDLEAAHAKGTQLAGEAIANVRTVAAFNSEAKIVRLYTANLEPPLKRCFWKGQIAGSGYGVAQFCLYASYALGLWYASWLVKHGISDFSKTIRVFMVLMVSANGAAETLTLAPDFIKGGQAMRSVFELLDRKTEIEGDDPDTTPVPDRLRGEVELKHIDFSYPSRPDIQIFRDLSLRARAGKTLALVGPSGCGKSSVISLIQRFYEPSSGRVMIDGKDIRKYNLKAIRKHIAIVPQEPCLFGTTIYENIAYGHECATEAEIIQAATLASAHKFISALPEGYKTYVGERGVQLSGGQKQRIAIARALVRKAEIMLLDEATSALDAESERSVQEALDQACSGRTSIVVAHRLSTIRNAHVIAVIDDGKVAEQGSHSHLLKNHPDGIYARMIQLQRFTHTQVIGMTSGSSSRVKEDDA
Nature of the assay: FRET or BRET. On the technique in general: In BRET a luciferase serves as donor, and the signal depends on an acceptor being close.

Another assay concerns the target T2, ABCB1-YFP E1.007A (Arabidopsis, UniProt Q9ZR72 1-1286, E1.007A).
T2 sequence: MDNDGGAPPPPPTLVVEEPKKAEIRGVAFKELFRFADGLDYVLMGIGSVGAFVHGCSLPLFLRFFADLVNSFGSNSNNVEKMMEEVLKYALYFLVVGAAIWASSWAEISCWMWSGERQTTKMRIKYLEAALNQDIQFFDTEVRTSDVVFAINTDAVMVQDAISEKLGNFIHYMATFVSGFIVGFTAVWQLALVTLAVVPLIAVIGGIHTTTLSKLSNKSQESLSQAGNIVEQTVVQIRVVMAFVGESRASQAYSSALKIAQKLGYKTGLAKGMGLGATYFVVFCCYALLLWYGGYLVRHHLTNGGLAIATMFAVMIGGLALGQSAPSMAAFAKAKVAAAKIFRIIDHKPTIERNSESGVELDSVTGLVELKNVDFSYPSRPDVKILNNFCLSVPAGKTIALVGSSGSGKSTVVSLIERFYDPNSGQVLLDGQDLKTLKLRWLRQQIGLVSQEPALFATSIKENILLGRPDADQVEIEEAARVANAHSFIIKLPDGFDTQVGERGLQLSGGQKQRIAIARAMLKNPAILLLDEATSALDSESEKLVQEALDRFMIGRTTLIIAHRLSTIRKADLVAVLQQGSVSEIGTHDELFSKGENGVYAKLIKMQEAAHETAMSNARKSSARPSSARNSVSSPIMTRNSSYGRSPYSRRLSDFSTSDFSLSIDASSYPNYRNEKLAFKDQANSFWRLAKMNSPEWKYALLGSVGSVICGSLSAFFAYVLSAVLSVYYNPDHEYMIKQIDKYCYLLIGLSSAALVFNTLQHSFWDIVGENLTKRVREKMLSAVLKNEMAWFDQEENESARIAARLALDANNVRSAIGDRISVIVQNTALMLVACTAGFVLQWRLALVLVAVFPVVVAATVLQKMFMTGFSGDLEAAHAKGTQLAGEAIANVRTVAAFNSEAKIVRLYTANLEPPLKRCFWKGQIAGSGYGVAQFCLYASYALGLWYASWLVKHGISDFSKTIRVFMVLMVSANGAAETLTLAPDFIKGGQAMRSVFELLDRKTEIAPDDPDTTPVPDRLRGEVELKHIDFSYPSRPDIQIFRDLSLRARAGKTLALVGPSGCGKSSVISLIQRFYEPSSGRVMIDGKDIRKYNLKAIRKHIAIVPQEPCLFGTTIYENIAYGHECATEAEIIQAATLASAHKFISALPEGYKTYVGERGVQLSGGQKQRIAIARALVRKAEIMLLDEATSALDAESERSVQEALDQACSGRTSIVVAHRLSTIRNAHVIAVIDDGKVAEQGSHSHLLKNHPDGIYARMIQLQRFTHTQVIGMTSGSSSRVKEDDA
Nature of the assay: FRET or BRET.

B1: TWD1-Rluc (natural protein)
chain: MDESLEHQTQTHDQESEIVTEGSAVVHSEPSQEGNVPPKVDSEAEVLDEKVSKQIIKEGHGSKPSKYSTCFLHYRAWTKNSQHKFEDTWHEQQPIELVLGKEKKELAGLAIGVASMKSGERALVHVGWELAYGKEGNFSFPNVPPMADLLYEVEVIGFDETKEGKARSDMTVEERIGAADRRKMDGNSLFKEEKLEEAMQQYEMAIAYMGDDFMFQLYGKYQDMALAVKNPCHLNIAACLIKLKRYDEAIGHCNIVLTEEEKNPKALFRRGKAKAELGQMDSARDDFRKAQKYAPDDKAIRRELRALAEQEKALYQKQKEMYKGIFKGKDEGGAKSKSLFWLIVLWQWFVSLFSRIFRRHRVKAD
As for B1, the “reduction of the BRET ratio against Wt ABCB1-YFP” value is ~17% with ABCB1-YFP P1.008G and ~39% in the assay with ABCB1-YFP E1.007A.
